Test results published in patent US20260102420A1, “CANCER IMMUNOTHERAPY” (Hoffmann-La Roche Inc., priority 2022, published 2026).
Like-named read-outs stand apart in the source and are kept apart here.

Assays:
[1] = tested on: CEA expressing metastatic CRCs; conditions: cited from earlier work
MKN45 tumors = assay: In vivo cancer model, MKN45 wt or UAP1 KO tumors in stem cell humanized NSG mice
Experimental: FIGS. 8A, 8B, 8C, 8D, and 8E. Deletion of UAP1 sensitizes MKN45 tumors to immunotherapy. FIG. 8A: Tumor growth curves of MKN45 wt and UAP1 KO cell in stem cell humanized NSG mice (huNSG). Animals were dosed either with vehicle control, 0.2 mg/kg or 0.4 mg/kg CEA-TCB. Time point of first dosing at day 15 as indicated. Tumor volume was measured with a caliper. Mice per group (n=10). FIG. 8B: Tumor volume ratio of TCB therapy groups and vehicle control groups for every time point after the first TCB treatment. FIG. 8C: Tumor growth curves for individual mice. Two-way-ANOVA statistical analysis was done with Graphpad Prism software. FIG. 8D and FIG. 8E show the measured individual tumor volumes over time within the treatment groups corresponding to the average values shown in FIGS. 8A and FIG. 8B.
Immunocompetent C57BL/6J and NOD.Cg-PrkdcscidIL-2rgtm1Wjl/SzJ (NSG) mice were obtained from Charles River Laboratories. All animal studies were performed under local Swiss government ethical approval and regulations (license ZH183/2020) according to international FELASA and national GV-Solas and TierSchG guidelines, respectively. […]
B16F10 and MKN45 wtl and UAP1 KO cells were trypsinized, washed and resuspended using a 1:1 mixture of tissue culture medium and Matrigel in a total volume of 100 μl. […] Tumors were measured twice weekly and tumor volume (mm3) was determined using the formula 0.5×length×width2. […]

CD8+ and CD4+ T cells = assay: Intra-tumor T cell activation marker analysis by flow cytometry; assay type: in vivo, mice; conditions: UAP1 KO groups, not in wt; 32 days post tumor injection; FIGS. 12A and 12B
Experimental: FIGS. 12A and 12B. 32 days post tumor injection, scouts were taken for intra-tumor T cell activation marker analysis. […] Data were obtained using flow cytometry. P values were calculated using two-tailed paired Student t-test. *P<0.05, **P<0.01
To confirm that the observed effect was due to the involvement of the endogenous mouse immune system, the experiment was repeated in NSG immunodeficient mice.

A549 = assay: T cell-mediated killing assay, A549 wt vs UAP1 KO; assay type: cell-based, human; conditions: FIG. 3C
Experimental: FIGS. 3A, 3B, 3C and 3D. Tumor intrinsic UAP1 regulates TCB-mediated cytotoxicity in vitro. T cell-mediated killing assay. UAP1 knockout cells and wt cells for FIG. 3A MKN45 with CEA-TCB, FIG. 3B MKN45 with EpCAM-TCB, FIG. 3C A549 with CEA-TCB and FIG. 3D B16F10 with Tyrp1-TCB were used and measured was the cell count of tumor cells over time in an incucyte. Graphs show mean±SEM. P values were calculated using two-tailed paired Student t-test. *P<0.05, **P<0.01
25000 MKN45-nuclight red (NLR), 20000 A549-hCEA and 10000 B16F10-NLR tumor cells (wt or UAP1 ko) were seeded in one well of a 96 well-plate. Afterwards TCBs or siinfekl were given at the indicated concentrations. […] For MKN45-NLR and B16F10-NLR, T cell-mediated killing was calculated based on the red fluorescent signal coming from the tumor cells. All values were first transformed to fold-change to time 0, and % specific lysis was calculated as follows: […]
For A549-hCEA, the cytotox-green reagent (sartorius) was added to the co-culture at 1:16000 dilution and T-cell mediated killing was assesses by measuring green fluorescent count in each well. All values were first transformed to fold-change to time 0, and then % normalized green signal was calculated as follows: [(Green fluorescent counts TCB/Green fluorescent counts control TCB)×100]. […] T-cell mediated killing was measured as above. […]

B1: cibisatamab (antibody, chains of the INN, looked up, V domains shown)
VH: QVQLVQSGAEVKKPGASVKVSCKASGYTFTEFGMNWVRQAPGQGLEWMGWINTKTGEATYVEEFKGRVTFTTDTSTSTAYMELRSLRSDDTAVYYCARWDFAYYVEAMDYWGQGTTVTVSS
VL: DIQMTQSPSSLSASVGDRVTITCKASAAVGTYVAWYQQKPGKAPKLLIYSASYRKRGVPSRFSGSGSGTDFTLTISSLQPEDFATYYCHQYYTYPLFTFGQGTKLEIK
VH2: QVQLVQSGAEVKKPGASVKVSCKASGYTFTEFGMNWVRQAPGQGLEWMGWINTKTGEATYVEEFKGRVTFTTDTSTSTAYMELRSLRSDDTAVYYCARWDFAYYVEAMDYWGQGTTVTVSS
VL2: QAVVTQEPSLTVSPGGTVTLTCGSSTGAVTTSNYANWVQEKPGQAFRGLIGGTNKRAPGTPARFSGSLLGGKAALTLSGAQPEDEAEYYCALWYSNLWVFGGGTKLTVL
patients with radiological shrinkage ([1]; in combination with PD-L1-inhibiting antibodies, 5/10 patients): 50% | patients with radiological shrinkage ([1]; monotherapy, 4/36 patients, failed at least two prior chemotherapy regimens): 11% | tumor response (MKN45 tumors; combination of UAP1 gene knockout and CEA TCB): complete tumor regression | tumor response (MKN45 tumors; mice treated with CEA-TCB only): incomplete tumor growth control | expression of the activation/exhaustion marker (Tim3) in intra-tumor T cells (CD8+ and CD4+ T cells): increased expression | T cell killing of UAP1 KO cells compared to wt cells (A549): more efficiently killed
